Measurements published in patent publication US20100285988A1.

How the values were obtained:
[1] = target: γ-secretase (human; HeLa cell membrane / solubilized HeLa membrane; endogenous in HEK293 cells) (human) (UniProt P49768); experiment: cell-based or functional assay
[2] = target: γ-secretase (mouse; mouse brain membrane, N2A neuroblastoma cells) (mouse); experiment: cell-based or functional assay

recombinant βCTF with the Flemish mutation (A21G) (from UniProt P05067 672-770)
reaction rate of γ-secretase (Aβ40 production in vitro) relative to WT βCTF [1]: 3 fold

αCTF-FLAG (recombinant α-secretase cleaved APP C-terminal fragment) (from UniProt P05067 688-770)
inhibition of X40 production, αCTF at 0.25 µM [1]: 24%
inhibition of X40 production, αCTF at 0.5 µM [1]: 32%
inhibition of X40 production, αCTF at 1.0 µM [1]: 60%
suppression of γ-secretase activity for Aβ production from 1 µM βCTF, αCTF at 0.25 µM [1]: 66%
suppression of γ-secretase activity for Aβ production from 1 µM βCTF, αCTF at 0.5 µM [1]: 71%
suppression of γ-secretase activity for Aβ production from 1 µM βCTF, αCTF at 1.0 µM [1]: 82%

βCTFΔ (Aβ17-23 deleted form of βCTF)
rate of γ-secretase activity for Aβ38 production relative to βCTF (HeLa membrane) [1]: < 10 fold
secreted Aβ40 from transfected HEK293T cells relative to SPβCTF (ECL) [1]: 10 fold
reaction rate of γ-secretase, 40-site production, relative to βCTF (mouse brain membrane) [2]: 25 fold
reaction rate of γ-secretase, 42-site production, relative to βCTF (mouse brain membrane) [2]: 11 fold
